Experimental data taken from publication PMC10998907 (Nature Communications, 2024).

Target: NiV-RBP ectodomain homotetramer (Nipah virus, Malaysia (deposit 8K3C …, UniProt Q9IH62))
Assay: cryo-EM structure
Settings: both partners purified

Chain of NiV-RBP ectodomain homotetramer (Nipah virus, Malaysia (Q9IH62 whole entry, looked up, the tested form may be a part): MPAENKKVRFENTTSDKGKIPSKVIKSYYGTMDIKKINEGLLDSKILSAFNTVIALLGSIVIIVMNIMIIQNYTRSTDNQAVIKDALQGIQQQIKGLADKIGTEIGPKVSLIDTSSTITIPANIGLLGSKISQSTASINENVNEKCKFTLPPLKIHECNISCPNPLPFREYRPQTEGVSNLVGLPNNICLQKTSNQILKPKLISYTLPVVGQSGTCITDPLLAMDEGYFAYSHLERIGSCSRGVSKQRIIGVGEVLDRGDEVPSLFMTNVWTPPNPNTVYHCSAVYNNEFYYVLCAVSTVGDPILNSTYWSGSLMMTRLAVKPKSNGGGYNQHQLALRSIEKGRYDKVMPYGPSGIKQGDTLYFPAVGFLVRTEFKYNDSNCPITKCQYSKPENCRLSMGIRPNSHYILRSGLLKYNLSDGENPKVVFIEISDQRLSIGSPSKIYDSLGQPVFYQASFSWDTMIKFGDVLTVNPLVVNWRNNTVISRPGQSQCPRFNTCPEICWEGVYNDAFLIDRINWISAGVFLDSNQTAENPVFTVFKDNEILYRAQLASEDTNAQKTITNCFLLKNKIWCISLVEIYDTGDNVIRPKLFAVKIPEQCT

B1: 41-6 Fab fragment (Fab, V domains shown)
VH: EVQLVQSGGGLVQPGGSLRLSCAASGFTVSSNYMSWVRQAPGKGLEWVSAISGSGGSTYYADSVKGRFTISRDNSKNTLYLQMNSLRAEDTAVYYCARDREDIVVVPAPRGYYYYYYMDVWGQGTTVTVSS
VL: QSVVTQPPSVSAAPGQKVTISCSGSSSNIGTNHLSWYQQVPGTAPKLLIYDNNKRPSGIPDRFSGSKSGTSASLAISGLQSEDEADYYCATWDDSLHAWVFGGGTKLTVL
stoichiometry N: 3
